The series can be described thus: yeast display, Sf9 membrane polyspecificity reagent, FACS + sequencing; frameworks hold sequencing errors. A digest of the protocol: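 A nanobody's polyreactivity label depends on the gate it was sorted from. Yeast display cells were stained with 10% biotinylated, detergent-solubilized Sf9 membrane reagent for 1 hour at 4 °C, enriched on streptavidin microbeads and sorted by FACS. The low and high (top ~1%) gates were set on anti-HA fluorescence for expression and streptavidin fluorescence for reagent binding.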
In the case of “QVQLVESGGGLVQSGGSLRLSCAASGITFDYYDMGWYRQAPGKERELVATITSDGSTTYADSVKGRFTISRDNAKNTVYLQMNSLKPEDTAVYYCDKRYWSYQYGYRMYYWGQGTQVTVSS”, the “polyreactivity (PSR sort gate)” value is recorded as “high polyreactivity”.
“QVQLVESGGGLVQAGGSLRLSCAASGSIFSYYAMGWYRQAPGKERELVAAISWNGGRTYYADSVKGRFTISRDNAMNTVFLQMNSLKPEDTAVYYCNAVKVYSYGLYGYWGQGTQVTVSS”: the “polyreactivity (PSR sort gate)” value was “high polyreactivity”.
The entry for “QVQLVESGGGLVQAGGSLRLSCAGSGSIFPFYVMGWYRQAPGKEREFVATISSRGGSTYYADSVKGRFTISRDNAKNTVYLQMNSLKPEDTAVYYCAAGWYRTDWGQRLHTYYYWGQGTQVTVSS” is “high polyreactivity”.
The same measure for “QVQLVESGGGLVQAGGSLRLSCAASGRTFTHYAMGWYRQAPGKERELVAAISRSGGTTYYADSVKGRFTISRDNAKNTVYLQMNSLKPEDTAVYYCAARWWYRYNYDYWGQGTQVTVSS”: “high polyreactivity”.
For “QVQLVESGGGLVQAGGSLLLSSAASGSIFQPYAMGWYRPAPGKERELVAAISIGDSTNYADSVKGRFTISRDNAKITVYLQMNSLKPEDTAVYYCNTTGEYYDYWGQGTQVTVSS”, the “polyreactivity (PSR sort gate)” value is given as “low polyreactivity”.
The same measure for “QVQLVESGGGLVQAGGSLRLRCAASGRTFDKYAMGWYRQAPGKERELVAAISYDAGRTYYADSVKGRFTISRDNAKNTVYLQMNSLKPEDNAVYFCNAVRFRGFGWGQGTQVTVSS”: “high polyreactivity”; for “QVQLVESGGGLVQAGGSLRLSCAASGSIFTNAMGWYRQAPGKERELVASIDANAGDTHYADSVKGRFTISRDNAKKTVYLQMNSLKPEDTAVYYCNADVTERLWTGEDDYWGQGTQVTVSS”: “low polyreactivity”; for “QVQIVESGGGLVQAGGSLRLSCAASGSIFSYNVMGWYRQAPGKERELVAAISWNDGSTYYADSVKGRFTISRDNAKNTVYLQMNSLKPEDTAVYYCAAEYGRRWHNELDYWGQGTQVTLSS”: “low polyreactivity”.
The entry for “QVQLVESGGVLVQAGGSLRLSCAASGFIFPYYAMGWYRPAPGKETELVAAIDQSGDSTYYADSVKGRFTISRDNAKNTVYLQMNSLKPEDTAVFYCAARAVGGVRGYRYDYWGQGTQVTVSS” is “high polyreactivity”; for “QVQLVESGGGLVQAGGSLRLSCAASGITFSSYTMGGYRQAPGKERELVARINSGGTTNYADSVKGRFTISRDNAKNTVYLQMNSLKPEDTAVFYCAAEWVSWRWAHKFDYWGQGTQVTVSS” it is “high polyreactivity”; for “QVQLVESGGGLVQAGGSLRLSCAASGFTFRNYAMGWYRQAPGKERELVAAISKSGGSTYYADSVKGRFTISRDNAKNTVYFQMNSLKPEDSAVYYCATVYLYVYGFEYYYWGQGTQVTLSS” it is “high polyreactivity”.
The entry for “QVQLVESGGGLVQAGGSLRLSCAASGITFSVYAMGWYRQAPGKEWELVASISSGGTSTYYADSVKGRFTISRDNAKNTVYLQMNSLKPEDTAVYYCAAYSYYTGDQYSYDYWGQGTQVTVSS” is “low polyreactivity”.
In the case of “QVQLVESGGGLVQAGGSLRLSCAASGFTFPRNTMGWYRQAPGKERELVAVISRSGGRSYYADSVKGRFTISRDNAKNTVYLQMNSLKPEDTAVYYCAADTSVRFDYWGQGTQVTVSS”, the “polyreactivity (PSR sort gate)” value is “high polyreactivity”.
The entry for “QVQPVESGGGLVHAGGSLRLSCAASGSIFWYNAMGWYRQAPGQEWELVAAINWSGGSTFYADSVKGRFTISRDNEKNTVYLQMNSLNPEDTAVYYCAADDWSTGYDFWGQGTQETVSS” is “high polyreactivity”.
Consider “QVQLVESGGGLVQAGGSLRLTCAASGLTFPSYSMGWYRQAPGKERELVAAIYYSGGSTYYADSVKGRFTISRDNAKITVYIHMNSLKPEDTAVYYCAADFTSFFNRIDYWGQGTQVTVSS”, for which the “polyreactivity (PSR sort gate)” value is listed as “low polyreactivity”.
For the sequence “QVQLVESGGGLVQAGGSLRLSCAASGRIFERYAMGWYRQAPGKERELVAGISISGGGTYYADSVKGRFTISRDIAKNTVYFQMNSLKPEDTAVYYCAATFPREEYGYWGQGTQVTVSS”, the “polyreactivity (PSR sort gate)” value is given as “low polyreactivity”.
The same measure for “QVQLVESGGGLVQAGGSLRLSCAASGIILPYYVMGSYRPAPGKERELVAAISSGGRTYYADSVKGRFTISRDNAKNTVYLQMNSLKPEDTAVYYCNAYFTGKWYDYWVQGTQVTVSS”: “high polyreactivity”; for “QVQLVESGGGLVQAGGSLRLSCAASGSTIRKNALGWSRQAPGKEREWVADIRRGGGTNYADSVKGRFTISRDNAKNTVYLQMNSLKPEDTAVYSCNTDILYYGRSKAPFYYCGQGTQVTVSS”: “high polyreactivity”; for “QVQLVESGGGLFQAGGSLRLSCAASGSTFNTNAMAWYRHAPGKERELVAAISWSSTRTYYADSVKWRFTISRDNAKNTVYLQMNSLKPEDTAVYYCAAATYQSRYFQRFDYWGQGTQVTVSS”: “high polyreactivity”.
For the sequence “QVQLVESGGGLVQAGGSLRLSCAASVLIIWLYTMGWYRQAPGKERELVAAIDWSGGSTYYADSVKGRFTMSRDIAKNTVYLQMNRLKPEDTAVYYCAADPEPSYRFDYGGQGTQVTVSS”, the “polyreactivity (PSR sort gate)” value is given as “low polyreactivity”.
The same measure for “QVQLVESGGGLVQAGGSLRLSCASSGSTFPSNAMGWYRQAPGKERELVAAISRSGGSTYYADSVKGRFTISRDNAKNTVYLQMNSLKPEDTAVYYCAVQVRPNYGGTRIHRGGYDYWGQGTQVTVSS”: “low polyreactivity”; for “QVQLVESGGGLVQAGGSLRLSCAASGSICRRNDMGWYRQAPGKERELVAAISSNGGSTYYADSVKGRFTISRDNAKNTVYLQMNSLKPEDTAVYYCNALVRVRYSPRYGYDYWGQGTQVTVSS”: “high polyreactivity”; for “QVQLVESGGGLVQAGGSLRLSCAASGFTFWTYAMGWYRQAPGKERELVAAISRSAGRTYYADSVKGRFTISRDNAKNTVYLQMNSLKPEDTAVYYCNARAGYVRYGYWGQGTQVTVSS”: “high polyreactivity”.
The entry for “QVQHVESRGGLVQAGGSLRLSCAASGFILYLNAMGWYRQAPGKERELVAAITSDGGSTYYADSVKGRFTISRDNAKNTVYLQMNSLKPEDTAVYYCAADNYPDEYDYWGQGTQVTVSS” is “low polyreactivity”; for “QVQLVESGGGLVQAGGSLRLNCAASGITYTQYAMGWYRQAPGKERELVAAISKRGGRTYYADSVKGRFTISRDNAKNTVYLQMNCLIPEDTAVYYCATVPYGEVDYWGQGTQVTVSS” it is “high polyreactivity”; for “QVQLVESGGGLVQAGGSLRLSCAASGSIFYSYAMGWYRQAPGKERELVAAISYSSGSTYYADSVKGRFTISRDNAKNTVYLQMNSLKPEDTAVYYCAAEGNGWQVDVTEVGEYDSWGQGTQVTVSS” it is “high polyreactivity”.
Take “QVQLVESGGGLVQAGGSLRLSCAASGRIFGINAMGWYRQAPGKERELVAAIDSAGRTYYADSVKGRFTISRDNAKNTVYLQMNSLKPEDTAVYSCNKDHSLYEHNYWGQGTQVTVSS”: the “polyreactivity (PSR sort gate)” value is “low polyreactivity”.
The same measure for “QVQLVESGGGLVQAGGSLRLSCAASRSIFSWYAMGWYRTAPGTERELVAAITWTGGSTYYADSVKGRFTISRDNAKNTVYLQMKSLKTEDTAVYYCAARRVVYRKYGDRGRWYNYWGQGTQVTVSS”: “high polyreactivity”; for “QVQLVESGGGLVQAGGSLRLSCAASGRIFARNAMGWYRQAPGKERELVAGITWSGSSTYYADSVKGRFTISRDNAKNTVYLQMNSLKPEDTAVYYCAVDYYVGSLRIDHDYWGQGTQVTVSS”: “low polyreactivity”; for “QVQLVESGGGLVQAGGSLRLSCAASGSIFRHYTMGWYRQAPGIERELVAVISSGGNTNYADSVKGRFTISRDNAKNTVYLQMNSLKPEDTAVDDCAARSHRYYSRVNYWGQGTQVTVSS”: “high polyreactivity”.

Values taken from the nanobody polyreactivity screen of Harvey et al. (2022).
